“Also recorded” adds a separate entry of the source.
What was measured:
[1] = starch-phosphorylation assay (33P-β-ATP radio-label incorporation into starch); assay type: biochemical, Arabidopsis; settings: for ability to phosphorylate starch (specific activity): FIG. 2, FIG. 3
Protocol: FIG. 8 includes the framework for the C6 versus C3 assay. To label the C6-position, non-phosphorylated starch is incubated in the presence of GWD and ^33P-β-ATP, the protein and label are washed away, and the starch is incubated in the presence of ATP and PWD. The C3 position is labeled in a similar manner, except ^33P-β-ATP is used with PWD. These products are then used as substrates in dephosphorylation assays. A starch-phosphorylation assay is routinely used in the lab to measure the specific activity of protein constructs. This assay has 3 benefits: it utilizes an endogenous substrate, measures the amount of phosphate added to glucose (dikinase activity), and allows comparison of addition to the C3- and C6-positions (site-specific activity) (FIG. 8). Phosphate-free starch was isolated from plants lacking the dikinase GWD, and the sample dialyzed to remove free phosphate. To measure dikinase activity, this phosphate-free starch was used as the substrate. The starch was incubated with the dikinase in question along with ^33P-β-ATP, the ^33P-β-ATP and dikinase was washed out, and radio-label incorporation into the starch was measured.

[2] = glucose release from native starch treated with combinations of amylases, dikinase and phosphatase; assay type: biochemical, Arabidopsis
Protocol: FIG. 7 includes a plot showing the glucose released for native Arabidopsis starch that was incubated at 25° C. for 60 minutes with combinations of amylases (BAM+ISA), dikinase (At-GWD), or phosphatase (At-SEX4), undigested starch was pelleted with a high-speed spin, the supernatant sugars were hydrolyzed via acid hydrolysis and glucose content was measured.
To observe how GWDs can be utilized to enhance starch utilization, native Arabidopsis starch was first treated with combinations of BAM3, ISA3, St-GWD, and At-SEX4. a high-speed spin was performed to remove the undigested starch, any remaining oligo-saccharides were hydrolyzed, and glucose released into the supernatant was measured (FIG. 7). Glucose was only released upon addition of amylases.
Native Arabidopsis starch was treated with combinations of BAM3, ISA3, StGWD, and AtSEX4, performed a high-speed spin to remove the undigested starch, hydrolyzed any remaining oligo-saccharides, and measured glucose released into the supernatant (FIG. 7). Glucose was only released upon addition of amylases, as expected.

Cm-GWD: full length Cyanidioschyzon merolae glucan, water dikinase, amino acids 1-1572
activity compared with At-GWD and At-PWD ([1]; FIG. 2): between that of At-GWD and At-PWD
ability to phosphorylate starch (specific activity) [1]: robust specific activity

NcCBM20-AtPWD: CBM20 of Neurospora crassa NCU08746 fused N-terminally to the dikinase domain of PWD
phosphorylation of starch by chimeric CBM-dikinase ([1]; phosphate-less Arabidopsis (sex1-3) starch or potato starch, FIG. 11A): robustly phosphorylated starch
priming of starch for phosphorylation by wild-type AtPWD ([1]; sex1-3 starch pretreated with the enzyme, FIG. 11B): served to prime wild-type AtPWD; also recorded: to a greater extent than starch pretreated with wild-type StGWD

B1: SEX4: Arabidopsis glucan phosphatase Starch EXcess4 (protein, UniProt Q9FEB5 55-379, looked up)
Phosphoglucan phosphatase …: SESKSSSEMSGVAKDEEKSDEYSQDMTQAMGAVLTYRHELGMNYNFIRPDLIVGSCLQTPEDVDKLRKIGVKTIFCLQQDPDLEYFGVDISSIQAYAKKYSDIQHIRCEIRDFDAFDLRMRLPAVVGTLYKAVKRNGGVTYVHCTAGMGRAPAVALTYMFWVQGYKLMEAHKLLMSKRSCFPKLDAIRNATIDILTGLKRKTVTLTLKDKGFSRVEISGLDIGWGQRIPLTLDKGTGFWILKRELPEGQFEYKYIIDGEWTHNEAEPFIGPNKDGHTNNYAKVVDDPTSVDGTTRERLSSEDPELLEEERSKLIQFLETCSEAEV
effect on glucose release when added to amylases ([2]; BAM3, ISA3, 25° C., 60 minutes, FIG. 7): did not enhance glucose release on its own
effect on glucose release when used with AtGWD ([2]; amylases plus AtGWD plus SEX4 (full starch phosphorylation cycle)): more than doubling
effect on glucose release when used with St-GWD ([2]; amylases plus St-GWD plus SEX4 (full starch phosphorylation cycle)): more than doubling

B2: truncated Cm-GWD construct (residues 511-1572): truncated Cm-GWD encoding the second predicted CBM and catalytic dikinase domain (protein)
chain: MTILGLERRSLDDDGETVICFSVEEDGFALRVHADLSPLVIHWGIARHRVTEFLQPDESLAVETKGRTYRFENKAMRTEFVPDEHHQGTYYAEIHLKKEHAPRAVTFVLFNPELNRWYRAEGGGNFVLRMDLESFSQLPGSVGKHEDVAQKIIEVEVEYGSWTLMHRYNLANDILRNSMSALDADLLQIVFVWLRYSFLRQLDWQRSYNTQPRLLAHAQEQLTTTLAQVFVSRPDLRLWVRLCLSMLGRGGGNGQRIRDDILRIMHKHHIPETPGHFMEQWHQKLHNNTTPDDVAICESYLAFLRSNGDKNVFYETLQKHGVTKERLASYERPIFAEVQTYPCDTNSLIHDFEEYLHVLKSVHSGTDLAVVLDYARWTLDQELISKVEHIQSVRAELMASPQGALEFSFLIAEARKMLQSTLEHVEDPTRVRDMLFLDLALDELARLAVESQGLADYVAETDVQKACNLLVVLAQHVGWSMLSSAFLETSYDLAALVYGIQSDVQLQEPDFGLRLYATMERLMDCVGHDVVERLHHDVQPKAVYIGVGCNIDQKVVTLFSEELIRGQAAFALAQVLRPLMRNIRKQANLGNWQVISPGSCTGQGAVFDELLSIQYKTFAEPTVAFVRRISGEEEIPTGMVGLITTDTLDILSHCAVRARNEHVVLACCFSEELFDQLTERFRGAWVAVRSLTDGSLDFQPIQEGAGRTTAADTTDGASEHAQRRAVSMRSDIEKKPVKSVLGIAQFNTQRGGSKSNSLAKLIRVIPDWIHIPPCALLPFGVCEQVLAEAQNSDVGERFQQLMAELDGKGPTDDCSALLARLRHCVRQLAPSDTFMKELQQVLQHEGFHSIDNLDMRRAWECILDVWASKFNDRAFLALRKAGAVGKTSLSSLYMAVLVQEVVPADYAFVLHTKNPFTGEPSEIYGELVHGLGEVLVGNYPGRALGFTYSKSTGQVRVCNYPSKTKALIPRGGLIFRSDSNGEDLEDFAGAGLFDSILMQPAEEVVVRYRELKILQDKAYLERILSKIGKCGIEIESNCGNKPQDIEGCICGEDVYVVQSRDQV
modifications: Fragment of Cyanidioschyzon merolae GWD polypeptide
notes: truncated Cm-GWD encoding the second predicted CBM and catalytic dikinase domain
ability to phosphorylate starch (specific activity) [1]: active glucan dikinase

B3: Cm-GWD H1162A: active site mutant (H1162A) of Cm-GWD 511C fragment (protein)
chain: MTILGLERRSLDDDGETVICFSVEEDGFALRVHADLSPLVIHWGIARHRVTEFLQPDESLAVETKGRTYRFENKAMRTEFVPDEHHQGTYYAEIHLKKEHAPRAVTFVLFNPELNRWYRAEGGGNFVLRMDLESFSQLPGSVGKHEDVAQKIIEVEVEYGSWTLMHRYNLANDILRNSMSALDADLLQIVFVWLRYSFLRQLDWQRSYNTQPRLLAHAQEQLTTTLAQVFVSRPDLRLWVRLCLSMLGRGGGNGQRIRDDILRIMHKHHIPETPGHFMEQWHQKLHNNTTPDDVAICESYLAFLRSNGDKNVFYETLQKHGVTKERLASYERPIFAEVQTYPCDTNSLIHDFEEYLHVLKSVHSGTDLAVVLDYARWTLDQELISKVEHIQSVRAELMASPQGALEFSFLIAEARKMLQSTLEHVEDPTRVRDMLFLDLALDELARLAVESQGLADYVAETDVQKACNLLVVLAQHVGWSMLSSAFLETSYDLAALVYGIQSDVQLQEPDFGLRLYATMERLMDCVGHDVVERLHHDVQPKAVYIGVGCNIDQKVVTLFSEELIRGQAAFALAQVLRPLMRNIRKQANLGNWQVISPGSCTGQGAVFDELLSIQYKTFAEPTVAFVRRISGEEEIPTGMVGLITTDTLDILSACAVRARNEHVVLACCFSEELFDQLTERFRGAWVAVRSLTDGSLDFQPIQEGAGRTTAADTTDGASEHAQRRAVSMRSDIEKKPVKSVLGIAQFNTQRGGSKSNSLAKLIRVIPDWIHIPPCALLPFGVCEQVLAEAQNSDVGERFQQLMAELDGKGPTDDCSALLARLRHCVRQLAPSDTFMKELQQVLQHEGFHSIDNLDMRRAWECILDVWASKFNDRAFLALRKAGAVGKTSLSSLYMAVLVQEVVPADYAFVLHTKNPFTGEPSEIYGELVHGLGEVLVGNYPGRALGFTYSKSTGQVRVCNYPSKTKALIPRGGLIFRSDSNGEDLEDFAGAGLFDSILMQPAEEVVVRYRELKILQDKAYLERILSKIGKCGIEIESNCGNKPQDIEGCICGEDVYVVQSRDQV
modifications: Fragment of Cyanidioschyzon merolae GWD polypeptide
ability to phosphorylate starch (specific activity) [1]: lacked activity

Source: US11155643B2, “Glucan kinases and methods for processing starch using the same” (University of Kentucky Research Foundation, priority 2017, dated 2021)
